Measured values from patent US20250381254A1, “Augmented Acid Alpha-Glucosidase For The Treatment Of Pompe Disease” (Amicus Therapeutics, Inc., priority 2015, published 2025).
Read-outs that look alike come from different tables or passages of the source.

Key:
CIMPR [1] = biological target: T1, CIMPR (Homo sapiens, UniProt P11717); assay: CIMPR affinity chromatography of rhGAA; format: binding; conditions: fraction of total enzyme by GAA activity
Experimental: To evaluate the ability of the rhGAA in Myozyme® and Lumizyme®, the only currently approved treatments for Pompe disease, these rhGAA preparations were injected onto a CIMPR column (which binds rhGAA having M6P groups) and subsequently eluted with a free […] gradient. Fractions were collected in 96-well plate and GAA activity assayed by 4MU—α-glucose substrate. The relative amounts of bound and unbound rhGAA were determined based on GAA activity and reported as the fraction of total enzyme.

[2] = system: normal and Pompe fibroblast cell lines; assay: Cellular uptake of rhGAA in fibroblasts; format: cell-based; conditions: for concentration that saturates cellular receptors: 16-hr incubation
Experimental: The relative cellular uptake of ATB200 and Lumizyme® rhGAA were compared using normal and Pompe fibroblast cell lines. Comparisons involved 5-100 nM of ATB200 rhGAA according to the invention with 10-500 nM conventional rhGAA Lumizyme®. After 16-hr incubation, external rhGAA was inactivated with TRIS base and cells were washed 3-times with PBS prior to harvest. Internalized GAA measured by 4MU-α-Glucoside hydrolysis and was graphed relative to total cellular protein and the results appear in FIGS. 10A-B.

Gaa KO mice = assay: Muscle function in Gaa KO mice, 12 biweekly administrations; format: in vivo, mouse; conditions: 20 mg/kg ERT, 10 mg/kg miglustat, FIGS. 33A-33B
Excerpt: In FIG. 33A, * indicates statistically significant compared to Lumizyme® alone (p<0.05, 2-sided t-test). In FIGS. 34A-34G, * indicates statistically significant compared to Lumizyme® alone (p<0.05, multiple comparison using Dunnett's method under one-way ANOVA analysis).

[3] = cited from earlier work
CIMPR [4] = biological target: T1, CIMPR; assay: CIMPR plate binding assay
Experimental: Briefly, CIMPR-coated plates were used to capture GAA. Varying concentrations of rhGAA were applied to the immobilized receptor and unbound rhGAA was washed off. The amount of remaining rhGAA was determined by GAA activity.

[5] = system: Pompe fibroblasts and skeletal muscle myoblasts; assay: Internalization by Pompe fibroblasts and skeletal muscle myoblasts; format: cell-based
Gaa knockout mice [6] = assay: Glycogen clearance, ATB200 vs Lumizyme, two IV bolus administrations; format: in vivo, mouse; conditions: ATB200 10 and 20 mg/kg; skeletal muscles
Excerpt: Animals are given two IV bolus administrations (every other week); tissues are harvested two weeks after the last dose and analyzed for acid α-glucosidase activity and glycogen content.

Gaa knockout mice [7] = assay: Muscle physiology and morphology in Gaa-knockout mice; format: in vivo, mouse; conditions: 20 mg/kg rhGAA IV every other week, miglustat 10 mg/kg oral where co-administered
cynomolgus monkeys = assay: 13-week toxicity study in cynomolgus monkeys; conditions: once every other week for 13 weeks
Experimental: Animals were acclimated to the study room for 18 (females) to 19 (males) days. On the final day of acclimation, animals weighed between 2.243 kg and 5.413 kg and were 2 to 3 years of age.
ATB200 is formulated in 25 mM sodium phosphate buffer, pH 6 containing 2.92 mg/mL sodium chloride, 20 mg/mL mannitol, and 0.5 mg/mL polysorbate 80 (formulation buffer). Test article (ATB200 or miglustat) and control article/vehicle (formulation buffer) were administered once every other week for 13 weeks, starting on Day 1 and ending on Day 85. ATB200 and the control article/vehicle were administered by 2 hour (±10 minute) intravenous (IV) infusion at 0 mg/kg (Group 1, control article), 50 mg/kg (Group 2), or 100 mg/kg (Groups 3 and 5). Miglustat was administered nasogastrically in sterile water for injection, USP, at 25 mg/kg (Group 2) or 175 mg/kg (Groups 3 and 4), 30 minutes (±2 minutes) prior to the start of the infusion for ATB200, when given in combination. The dosing volume across all groups was 10 mL/kg.
Parameters assessed during the in-life phase of the study included body weights, food consumption, clinical observations, detailed clinical observations, physical examinations, electrocardiography, ophthalmic assessments, clinical pathology (hematology, coagulation, serum chemistry), anti-drug antibody (ADA) assessment, neutralizing ADA assessment, urinalysis, and plasma toxicokinetics (TK) for miglustat and ATB200 activity and total protein. Terminal necropsy of animals was performed on Day 99 (14 days after the last dose administration). At necropsy, gross observations and organ weights were recorded, and tissues were collected for microscopic examination.

[8] = human, in vivo
Excerpt: The study will be conducted in 2 stages.
This stage will include: • Safety: review of AEs, including serious adverse events (SAEs) and IARs; review of concomitant medications and nondrug therapies; vital signs (HR, RR, BP, and temperature); brief PE; ECG; clinical safety laboratory assessments (serum chemistry, hematology, and urinalysis); and urine pregnancy test • PD: urinary Hex4 and serum CPK • Immunological: blood samples for anti-recombinant acid α-glucosidase antibody titers (anti-recombinant acid α-glucosidase total and neutralizing antibody titers and antibody cross-reactivity with alglucosidase alfa) and blood samples for measurement of pro-inflammatory cytokines and other biomarkers of immune system activation. If needed, IgE measurements will also be performed. • Serial 24-hour pharmacokinetics (PK): During Period 1 (Visit 3, Day 1), Period 2 (Visit 4, Day 15), and Period 3 (Visit 5, Day 29), blood sampling for plasma acid α-glucosidase activity levels and total acid α-glucosidase protein concentrations will be taken for all subjects.
• Safety: review of AEs, including SAEs and IARs; review of concomitant medications and nondrug therapies; vital signs (HR, RR, BP, and temperature); weight; PE; ECG; clinical safety laboratory assessments (serum chemistry, hematology, and urinalysis); and urine pregnancy test • PD: urinary Hex4 and serum CPK • Immunological: blood samples for anti-recombinant acid α-glucosidase antibody titers (anti-recombinant acid α-glucosidase total and neutralizing antibody titers, and antibody cross-reactivity with alglucosidase alfa) and blood samples for measurement of pro-inflammatory cytokines and other biomarkers of immune system activation. If needed, IgE measurements will also be performed. • Serial 24-hour PK: During Period 4 (Visit 6, Day 43 and Visit 8, Day 71) and Period 5 (Visit 9, Day 85 and Visit 11, Day 113), blood sampling for plasma acid α-glucosidase activity levels, total acid α-glucosidase protein concentrations, and miglustat concentrations will be taken for all subjects. […]

[9] = Clinical study: ALT, AST and CPK biomarkers; format: in vivo, human
Experimental: Alanine aminotransferase (ALT), aspartate aminotransferase (AST) and creatine phosphokinase (CPK) levels were monitored in human patients that switched from Lumizyme® to ATB200. The patients received ascending doses of ATB200 (5, 10 and 20 mg/kg) followed by co-administration of ATB200 (20 mg/kg) and miglustat (130 and 260 mg). High levels of CPK enzyme may indicate injury or stress to muscle tissue, heart, or brain. Elevated ALT and AST are markers of liver and muscle damage from Pompe disease, respectively.

[10] = in vivo
[11] = in vivo; remark: listed apart in the source
Experimental: Pharmacokinetic data for acid α-glucosidase (ATB200), including sampling times, dosing history and plasma concentrations of acid α-glucosidase, is obtained from mice, rats and monkeys administered ATB200 by intravenous injection. […] Modeling and simulations are performed using Phoenix® NLME™ v1.3. Compartmental PK models are constructed to assess the PK of ATB200 in plasma. The models include: • Description of the relationships between plasma concentration and time; • A variance component characterizing between- and within-animal variability in model parameters; and • A component describing uncertainty in the state of knowledge about critical model components.
PK is assumed to be species independent and is scaled according to a generalized Dedrick approach that scales the disposition according to the power of an animal's body weight:
where CL=systemic clearance, V=volume of distribution, BW=body weight, p=peripheral, b and d=allometric exponents, and a and c=typical values for a BW=1. […] Nominal BW (0.025, 0.25 and 2.5 kg) are used in the analyses.
The model includes a theoretical allometric component accounting for difference in body weight across animal species on clearance (CL) and volume of distribution (Vc).

[12] = cynomolgus monkey, in vivo
Experimental: Total anti-drug antibody (ADA) and neutralizing antibody (NAb) levels are measured in plasma. Blood samples (approximately 1.6 mL) were collected in K2EDTA tubes from all animals once during acclimation, predose (prior to administration of miglustat) and on Days 1, 85 and 99. Samples were maintained on wet ice until processed. Plasma was obtained by centrifugation at 2° C. to 8° C. and aliquots (approximately 0.2 mL) were transferred to polypropylene vials, and stored frozen at −60° C. to −86° C. within one hour from blood collection. Analysis of samples for ADA was conducted on samples collected from animals in Groups 1, 2, 3, and 5 (miglustat only samples were not analyzed). Analysis for neutralizing antibodies was conducted using an enzyme assay with the fluorogenic substrate 4-methylumbelliferyl-α-D-glucopyranoside (4MU-Glc).

[13] = cynomolgus monkey, in vivo; remark: listed apart in the source
Experimental: ATB200 toxicokinetics were measured in blood samples collected in K2EDTA tubes from animals on Days 1 and 85 at the following time points: • For Groups 1, 2, 3, and 5: Predose (prior to administration of miglustat); 1 hour from initiation of infusion; 2 hours from initiation of infusion; 2.5 hours from initiation of infusion; 3 hours from initiation of infusion; 4 hours from initiation of infusion; 6 hours from initiation of infusion; 12 hours from initiation of infusion; 26 hours from initiation of infusion; 168 hours from initiation of infusion; and 336 hours from initiation of infusion (collected prior to dosing on Day 15); and • For Group 4: Predose (prior to administration of miglustat); 1.5 hour post administration of miglustat; 2.5 hours post administration of miglustat; 3.5 hours post administration of miglustat; 4.5 hours post administration of miglustat; 6.5 hours post administration of miglustat; 12.5 hours post administration of miglustat; 26.5 hours post administration of miglustat; 168.5 hours post administration of miglustat; and 336.5 hours post administration of miglustat (collected prior to dosing on Day 15). […]
Total ATB200 protein was measured by liquid chromatography coupled to tandem mass spectrometry (LC-MS/MS). […]

[14] = in vivo, iv, 100 mg/kg
[15] = human, in vivo; remark: listed apart in the source
Experimental: This is an open-label, fixed-sequence, ascending-dose, first-in-human study to evaluate the safety, tolerability, and pharmacokinetics (PK) of intravenous (IV) recombinant acid α-glucosidase (ATB200, lyophilized powder reconstituted with sterile water for injection and diluted with 0.9% sodium chloride for injection) alone and when co-administered with oral miglustat (hard gelatin capsules, 65 mg). The study will be conducted in 2 stages. In Stage 1, safety, tolerability, and PK will be evaluated following sequential single ascending doses of ATB200, administered every 2 weeks as an approximately 4 hour intravenous infusion, for 3 dosing periods at 5, 10, and 20 mg/kg. In Stage 2, safety, tolerability, and PK will be evaluated following single- and multiple-ascending dose combinations: 20 mg/kg ATB200 co-administered every 2 weeks with 130 mg miglustat (two 65 mg capsules), taken orally 1 hour prior to an approximately 4 hour intravenous infusion of ATB200, for 3 doses followed by 20 mg/kg ATB200 co-administered with 260 mg miglustat (four 65 mg capsules), taken orally 1 hour prior to an approximately 4 hour intravenous infusion of ATB200, for 3 doses.

Gaa knockout mice [16] = assay: Exposure-response: glycogen levels in Gaa knockout mice
Experimental: Gaa knockout mice are administered acid α-glucosidase (ATB200) intravenously at doses of 5, 10 and 20 mg/kg, rising oral doses of miglustat (1, 3 and 10 mg/kg) concomitantly with intravenous doses of 5 or 10 mg/kg of ATB200 or rising oral doses of miglustat (1, 3, 5, 10, 20, and 30 mg/kg) concomitantly with intravenous doses of 20 mg/kg of ATB200.

[17] = one patient, switched from Lumizyme®, ATB200 5, 10, 20 mg/kg then 20 mg/kg + miglustat 130 and 260 mg

T1 sequence (P11717 41-2491, species assumed): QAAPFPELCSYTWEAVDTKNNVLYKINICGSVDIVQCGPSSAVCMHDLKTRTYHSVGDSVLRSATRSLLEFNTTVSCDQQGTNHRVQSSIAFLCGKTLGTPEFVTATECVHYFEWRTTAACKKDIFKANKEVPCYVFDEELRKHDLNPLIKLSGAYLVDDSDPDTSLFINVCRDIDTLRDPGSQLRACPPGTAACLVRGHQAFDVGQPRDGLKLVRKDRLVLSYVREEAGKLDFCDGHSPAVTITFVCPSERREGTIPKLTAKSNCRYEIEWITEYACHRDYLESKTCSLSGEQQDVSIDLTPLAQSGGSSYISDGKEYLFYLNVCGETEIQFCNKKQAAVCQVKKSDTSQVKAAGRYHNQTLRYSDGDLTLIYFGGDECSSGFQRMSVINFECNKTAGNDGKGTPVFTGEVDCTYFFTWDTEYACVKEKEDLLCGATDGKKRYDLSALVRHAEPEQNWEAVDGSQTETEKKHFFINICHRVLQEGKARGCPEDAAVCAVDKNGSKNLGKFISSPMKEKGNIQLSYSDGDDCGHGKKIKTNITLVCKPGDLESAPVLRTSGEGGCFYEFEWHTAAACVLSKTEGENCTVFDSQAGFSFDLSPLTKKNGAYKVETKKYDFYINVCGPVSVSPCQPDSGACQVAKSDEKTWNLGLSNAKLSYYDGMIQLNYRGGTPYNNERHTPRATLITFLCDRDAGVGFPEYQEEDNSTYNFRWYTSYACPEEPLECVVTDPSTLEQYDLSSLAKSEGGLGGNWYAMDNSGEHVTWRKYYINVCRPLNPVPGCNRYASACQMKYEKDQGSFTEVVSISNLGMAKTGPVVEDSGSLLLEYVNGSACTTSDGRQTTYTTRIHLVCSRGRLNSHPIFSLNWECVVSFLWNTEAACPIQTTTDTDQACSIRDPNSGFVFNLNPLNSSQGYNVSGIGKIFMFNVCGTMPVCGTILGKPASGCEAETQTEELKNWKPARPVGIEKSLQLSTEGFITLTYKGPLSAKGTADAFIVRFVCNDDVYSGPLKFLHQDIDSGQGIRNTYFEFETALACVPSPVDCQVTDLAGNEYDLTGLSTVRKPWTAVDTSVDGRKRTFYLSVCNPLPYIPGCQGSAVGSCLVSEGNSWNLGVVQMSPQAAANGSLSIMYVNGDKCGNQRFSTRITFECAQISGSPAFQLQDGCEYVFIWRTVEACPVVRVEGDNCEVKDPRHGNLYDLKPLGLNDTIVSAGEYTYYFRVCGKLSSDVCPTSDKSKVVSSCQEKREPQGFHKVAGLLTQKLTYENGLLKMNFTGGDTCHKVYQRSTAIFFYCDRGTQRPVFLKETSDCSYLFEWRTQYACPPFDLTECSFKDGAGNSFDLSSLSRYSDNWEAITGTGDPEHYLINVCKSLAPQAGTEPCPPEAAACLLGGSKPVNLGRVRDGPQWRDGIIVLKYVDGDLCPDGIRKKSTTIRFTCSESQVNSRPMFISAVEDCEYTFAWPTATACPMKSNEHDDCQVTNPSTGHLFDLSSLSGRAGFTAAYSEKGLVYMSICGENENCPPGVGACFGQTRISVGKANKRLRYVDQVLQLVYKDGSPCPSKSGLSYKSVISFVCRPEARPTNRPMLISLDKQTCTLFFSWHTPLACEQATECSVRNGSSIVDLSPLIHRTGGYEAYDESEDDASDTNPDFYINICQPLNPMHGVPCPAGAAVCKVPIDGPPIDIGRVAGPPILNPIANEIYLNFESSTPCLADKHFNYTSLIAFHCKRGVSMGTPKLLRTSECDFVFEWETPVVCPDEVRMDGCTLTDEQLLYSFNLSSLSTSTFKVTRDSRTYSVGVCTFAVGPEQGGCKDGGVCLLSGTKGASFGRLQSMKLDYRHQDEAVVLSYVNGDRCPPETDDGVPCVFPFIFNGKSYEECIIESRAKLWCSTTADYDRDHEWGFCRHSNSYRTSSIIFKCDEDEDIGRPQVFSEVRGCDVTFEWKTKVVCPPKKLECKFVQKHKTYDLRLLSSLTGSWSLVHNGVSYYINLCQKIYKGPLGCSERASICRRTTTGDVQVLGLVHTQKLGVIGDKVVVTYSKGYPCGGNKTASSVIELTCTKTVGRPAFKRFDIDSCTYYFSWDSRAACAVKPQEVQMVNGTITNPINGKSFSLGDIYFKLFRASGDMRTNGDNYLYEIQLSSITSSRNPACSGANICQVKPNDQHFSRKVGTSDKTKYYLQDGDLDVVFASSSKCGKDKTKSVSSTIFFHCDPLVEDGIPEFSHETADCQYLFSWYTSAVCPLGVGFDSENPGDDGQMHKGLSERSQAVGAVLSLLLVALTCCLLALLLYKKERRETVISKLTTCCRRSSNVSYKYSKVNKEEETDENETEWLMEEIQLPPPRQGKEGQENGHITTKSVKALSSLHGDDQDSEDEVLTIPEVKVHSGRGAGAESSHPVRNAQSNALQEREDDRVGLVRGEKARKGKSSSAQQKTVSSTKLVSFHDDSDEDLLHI

Substance: Lumizyme®: conventional rhGAA product (alglucosidase alfa), Genzyme
- rhGAA activity eluted prior to addition of M6P (did not bind to the CIMPR) (CIMPR [1]): 78%
- rhGAA eluted with M6P / containing M6P (CIMPR binding) (CIMPR [1]): 22%
- concentration that saturates cellular receptors [2]: about 250 nM
- uptake efficiency constant (Kuptake) ([2]; extrapolated, FIG. 10C): 56 nM
- functional muscle strength (grip strength and wire hang tests) (Gaa KO mice): observed to decline
- AUC ([3]; 20 mg/kg dose, reported): ~2700 µg·h/mL
- systemic clearance ([3]; Week 52, repeated dosing, late-stage Pompe disease, product label): 601 mL/h
- half-life ([3]; product label): 2.4 h

Substance: ATB200
- CIMPR binding compared with Lumizyme® (CIMPR [4]; FIG. 9A): bound to CIMPR significantly better than Lumizyme®
- Kd (CIMPR [4]; M6P receptor plate binding assays): 2 to 4 nM
- concentration that saturates cellular receptors [2]: about 20 nM
- internalization into normal and Pompe fibroblast cells ([2]; vs Lumizyme®): internalized to a greater degree than conventional Lumizyme® rhGAA
- Kupdate (internalization) [5]: 7 to 14 nM
- glycogen reduction vs Lumizyme® 20 mg/kg (Gaa knockout mice [6]): significantly better reduction of glycogen levels in skeletal muscles than Lumizyme®
- lysosome proliferation (LAMP1) (Gaa knockout mice [7]; FIG. 20): reduction in lysosome proliferation in heart, diaphragm and skeletal muscle (soleus) tissue compared to conventional treatment with alglucosidase alfa
- punctate glycogen levels (PAS) (Gaa knockout mice [7]; FIG. 21): reduction in punctate glycogen levels in heart and skeletal muscle (soleus) tissue compared to conventional treatment with alglucosidase alfa
- test article-related changes (survival, clinical observations, body weight, ECG, clinical pathology, organ weights, histopathology) (cynomolgus monkeys): no changes attributable
- No-Observed-Adverse-Effect-Level (NOAEL) (cynomolgus monkeys; 2 hour infusion, with or without miglustat, highest dosage tested): 100 mg/kg/infusion
- Volume of distribution [8]: 3.5 to 5.7 L
- dose proportionality of exposures [8]: slightly greater than dose proportional exposures
- tmax (median) ([8]; 20 mg/kg): 4.0 h
- reduction in ALT ([9]; another patient, same regimen): 11%
- reduction in AST ([9]; another patient, same regimen): 22%
- reduction in CPK ([9]; another patient, same regimen): 31%
- reduction in ALT [9, 17]: 34%
- reduction in AST [9, 17]: 28%
- reduction in CPK [9, 17]: 44%
- apparent plasma half-life t1/2 [10]: ~45 m
- Central volume of distribution (Vc) [11]: 0.0101 × (BW/0.25)^0.83 L
- Peripheral clearance (CLd) [11]: 0.00029 × (BW/0.25)^0.78 L/h
- Peripheral volume of distribution (V2) [11]: 0.000653 × (BW/0.25)^0.83 L
- Systemic clearance (CL) [11]: 0.00957 × (BW/0.25)^0.78 L/h
- anti-drug antibody (ADA) incidence [12]: 100%
- mean terminal half-life (t1/2β) [13]: 1.70 to 11.1 h
- time to maximal ATB200 plasma concentration (tmax) [13]: approximately 2 hours
- AUC [14]: 5330 µg·h/mL
- adverse events [15]: generally mild and transient
- infusion-associated reactions [15]: no infusion-associated reactions
- serious adverse events [15]: no serious adverse events (SAEs)
- tissue glycogen depletion (Gaa knockout mice [16]; 5, 10 and 20 mg/kg IV): deplete tissue glycogen in acid α-glucosidase (Gaa) knockout mice in a dose-dependent fashion
- Glycogen, median (Gaa knockout mice [16]; ATB200 5 mg/kg monotherapy, Study #1): 307 μg/mg protein
- Glycogen, median (Gaa knockout mice [16]; ATB200 5 mg/kg monotherapy, overall median): 307 μg/mg protein
- Glycogen, median (Gaa knockout mice [16]; ATB200 10 mg/kg monotherapy, Study #1): 259 μg/mg protein
- Glycogen, median (Gaa knockout mice [16]; ATB200 10 mg/kg monotherapy, overall median): 259 μg/mg protein
- Glycogen, median (Gaa knockout mice [16]; ATB200 20 mg/kg monotherapy, Study #1): 157 μg/mg protein
- Glycogen, median (Gaa knockout mice [16]; ATB200 20 mg/kg monotherapy, Study #3): 195 μg/mg protein
- Glycogen, median (Gaa knockout mice [16]; ATB200 20 mg/kg monotherapy, overall median): 181 μg/mg protein
